Data published in paper PMC8428749.

Molecular target: human C4b binding protein (C4BP) (human) (UniProt P04003)
Experiment: BLI; Octet RED96; purified C4BP immobilised on amine-reactive (AR2G) sensor; P5 loop peptides 1.25-50 µM in PBS; 30°C; 1:1 binding fit

UniProt P04003, sequence (P04003 49-597, chain 1 of 2): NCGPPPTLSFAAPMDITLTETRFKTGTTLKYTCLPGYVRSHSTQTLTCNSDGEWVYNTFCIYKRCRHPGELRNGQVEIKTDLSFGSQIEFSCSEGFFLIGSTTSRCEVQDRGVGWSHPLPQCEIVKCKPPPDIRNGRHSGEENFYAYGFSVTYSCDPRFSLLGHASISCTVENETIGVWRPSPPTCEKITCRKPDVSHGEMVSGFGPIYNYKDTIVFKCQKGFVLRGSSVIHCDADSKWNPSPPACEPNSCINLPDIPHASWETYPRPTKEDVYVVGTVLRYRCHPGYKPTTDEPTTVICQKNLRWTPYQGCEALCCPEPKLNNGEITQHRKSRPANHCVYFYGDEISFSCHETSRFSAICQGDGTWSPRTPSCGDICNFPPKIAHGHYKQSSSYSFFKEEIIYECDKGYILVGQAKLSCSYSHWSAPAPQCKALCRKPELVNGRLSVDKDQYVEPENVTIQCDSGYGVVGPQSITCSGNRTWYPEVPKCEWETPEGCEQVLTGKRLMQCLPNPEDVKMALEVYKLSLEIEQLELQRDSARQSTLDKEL
UniProt P04003, sequence (P20851 18-252, chain 2 of 2, further chain): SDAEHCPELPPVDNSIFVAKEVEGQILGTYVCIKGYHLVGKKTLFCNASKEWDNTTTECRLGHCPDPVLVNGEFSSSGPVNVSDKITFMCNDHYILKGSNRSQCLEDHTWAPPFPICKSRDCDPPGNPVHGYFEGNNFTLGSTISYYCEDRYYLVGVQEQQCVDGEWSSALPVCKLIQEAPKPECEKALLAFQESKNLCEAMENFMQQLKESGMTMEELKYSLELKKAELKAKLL

| Substance | Kd [µM] |
| --- | --- |
| synthetic peptide of outer surface loop 2 of P5 from NTHi 3655 | 10 |
| synthetic peptide of outer surface loop 2 of P5 from NTHi KR271 | 73 |
